Experimental data as given in the supplement of paper PMC10567573.
± gives the standard deviation.

Experiment: protein stability index of a GFP-peptide fusion (GPS, HEK-293T) (PSI 1-6); higher = more stable
[1] = treatment: DMSO, c terminus: a fixed tail appended
[2] = treatment: MLN4924 1 uM, 8 h, c terminus: a fixed tail appended
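Note: 24-mer peptide tiles fused after GFP, lentivirally expressed, FACS-sorted into six equal bins by GFP/DsRed ratio, decoded by Illumina sequencing, PSI is the read-weighted mean bin number.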

| Sequence | protein stability index [1] | protein stability index [2] | protein stability index (treatment: DMSO, c terminus: native) | protein stability index (treatment: MLN4924 1 uM, 8 h, c terminus: native) |
| --- | --- | --- | --- | --- |
| TKHKCRQLTKASLKPRGCSKPPWR [SPACA9] | 2.85 ± 0.4 | 3.42 ± 0.47 |  |  |
| LSQPVTYQAFRECTLETTVHASGW [BCL2L13] | 2.44 ± 0.46 | 2.48 ± 0.4 |  |  |
| QVRIRYLGERRAEPHSLLHLSRLC [SPSB2] | 2.34 ± 0.2 | 2.22 ± 0.22 |  |  |
| TLDLSDLEAEKLVMFQRRYYKPGL [SCD] | 2.54 ± 0.3 | 2.88 ± 0.35 |  |  |
| MSALGSPVRAYDFLLKFLLVGDSD [RAB40B] | 2.42 ± 0.38 | 2.13 ± 0.32 |  |  |
| GMESYQEVTVQRNCCLTLCNFSIP [ZER1] | 2.41 ± 0.52 | 2.1 ± 0.42 |  |  |
| GEQEFEALMRMLDNLGYRTGYPYR [ADD1] | 2.15 ± 0.3 | 2.26 ± 0.49 |  |  |
| YDYVREFKRSTGTWHHTKPLLPSD [GAN] | 3.2 ± 0.32 | 3.27 ± 0.21 |  |  |
| QSIEYAGQQDQVKLHDFFSYLMDH [PPEF2] | 2.94 ± 0.26 | 2.92 ± 0.49 |  |  |
| IASEWFLIANRSYKVSAASSFFFS [SLC22A15] | 3.03 ± 0.19 | 2.94 ± 0.42 |  |  |
| FETQLKTLCQFPETLLGDPKRRMR [KCNA3] | 3.54 ± 0.35 | 3.65 ± 0.28 |  |  |
| MSQPRTPEQALDTPGDCPPGRRDE [TMEM175] | 5.38 ± 0.17 | 5.58 ± 0.19 |  |  |
| YKYCDHENAAFKDVALVLTVLLEE [TOR1AIP2] | 2.5 ± 0.43 | 2.8 ± 0.52 |  |  |
| DEMLSYLPGGTTGLQLPSTLPVSG [TFE3] | 3.95 ± 0.26 | 4.15 ± 0.21 |  |  |
| EHQPDNIKALFRKGKVLAQQGEYS [FKBP8] | 3.97 ± 0.36 | 3.87 ± 0.19 |  |  |
| VHLLLKKVLFALCALNALTTTVCL [FAM189A2] | 3.48 ± 0.24 | 3.02 ± 0.36 |  |  |
| CLSCRLFYFKLTDLYKKVKKNSSP [CRY1] | 2.42 ± 0.11 | 2.08 ± 0.44 |  |  |
| VIKENDPSGFLQISDALIRRVHLT [TRIM9] | 2.07 ± 0.26 | 2.39 ± 0.34 |  |  |
| GVMLYTLLVGRYPFHDSDPSALFS [TRIB1] | 2.52 ± 0.37 | 2.7 ± 0.46 |  |  |
| LKDWEHSIALRNISLAKGPPGPKG [SCARA5] | 3.68 ± 0.25 | 3.78 ± 0.36 |  |  |
| RRWGKRKNKPKMNYEKLSRGLRYY [ETS1] | 2.44 ± 0.33 | 2.68 ± 0.38 |  |  |

| Sequence | protein stability index [1] | protein stability index [2] | protein stability index (treatment: DMSO, c terminus: native) | protein stability index (treatment: MLN4924 1 uM, 8 h, c terminus: native) |
| --- | --- | --- | --- | --- |
| LLKLEQNTCSVITTLKGHEGSVAC [WDFY1] | 2.84 ± 0.12 | 3.29 ± 0.32 |  |  |
| DVRQNPCGSKACRRLFGPVDSEQL [CDKN1A] | 3.03 ± 0.2 | 3.12 ± 0.28 |  |  |
| GGSKYLIYRRYRQFHALQSKLEER [NCF4] | 2.45 ± 0.35 | 2.45 ± 0.33 |  |  |
| DLVPAALGSLTTAQIARSVWRPW [HES6] |  |  | 2.09 ± 0.17 | 2.32 ± 0.43 |
| ITCVSGAIVDLISRQYDKFLTHFI [FBXO33] | 2.85 ± 0.53 | 3.13 ± 0.44 |  |  |
| GSKSQRYSGAYGASVSDEELKRRV [CHCHD3] | 4.99 ± 0.29 | 4.86 ± 0.18 |  |  |
| FGGGYGGGLGGGYGGGLGGGFGGG [KRT13] | 2.37 ± 1.4 | 2.88 ± 0.15 |  |  |
| ANAFQQEAQTSGKERLLLSAAVPA [CHIT1] | 4.03 ± 0.33 | 4.18 ± 0.28 |  |  |
| QVVTVHLQTSLENGTRVQEEPELV [FKBP8] | 4.18 ± 0.15 | 4.37 ± 0.31 |  |  |
| DAMLKEASGPINFTMFLNLFGEKL [MYL5] | 2.23 ± 0.55 | 2.27 ± 0.28 |  |  |
| VDFNTLKSIGSEPHEDHVFLVANF [MATN2] | 2.06 ± 0.3 | 2.18 ± 0.18 |  |  |
| EDVTVGRRQAVAWLVAMHKAAKLL [ZFYVE21] | 2.48 ± 0.34 | 2.59 ± 0.35 |  |  |
| FATPEREMRISESAASGARFPLDS [PCDHGC5] | 4.44 ± 0.11 | 4.57 ± 0.3 |  |  |
| EQSSCTMTPDIHELVENIKSVLKS [FAM189A2] | 2.19 ± 0.29 | 2.4 ± 0.37 |  |  |
| LHASTVKRYGLGAHRGRLNIQAGI [CPXM2] | 2.52 ± 0.12 | 2.51 ± 0.2 |  |  |
| RLQVKEHQHEEIQNVRNHIHSCFS [ATL3] | 3.21 ± 0.17 | 3.23 ± 0.21 |  |  |
| YRDLAGGTGRSAKEQVLRKGTENL [FCHSD1] | 4.16 ± 0.18 | 4.2 ± 0.33 |  |  |
| GCMLIELALRGRLQLEACGMRRKS [GOLPH3] | 1.83 ± 0.31 | 2.25 ± 0.28 |  |  |
| KHGKRKRGRPRKLSKEYWDCLEGK [ELF3] | 4.18 ± 0.44 | 4.38 ± 0.18 |  |  |
| LESLQDGAAESPYSHLGGIDYKTT [RAB40A] | 4.44 ± 0.12 | 4.35 ± 0.11 |  |  |
| WCLVQICEKYLPGYYSEKLEAIQL [TBC1D10A] | 2.74 ± 0.48 | 3.57 ± 0.41 |  |  |

| Sequence | protein stability index [1] | protein stability index [2] | protein stability index (treatment: DMSO, c terminus: native) | protein stability index (treatment: MLN4924 1 uM, 8 h, c terminus: native) |
| --- | --- | --- | --- | --- |
| FALIAVVFLASGAVSVMKKCRKLE [SLC19A2] | 3.18 ± 0.35 | 3 ± 0.29 |  |  |
| SLHKGAKRKGIKSSIGRLFGKKEK [PPFIA4] | 3.6 ± 0.46 | 3.73 ± 0.18 |  |  |
| GDPLNCHSYLSGYISLLLRAEPYP [NR2F2] | 2.76 ± 0.82 | 2.71 ± 0.65 |  |  |
| TLVEAIKEQDGREVDWEYFYGLLF [DFFB] | 2.46 ± 0.28 | 2.69 ± 0.63 |  |  |
| KVSEGQADIMISFVRGDHRDNSPF [MMP1] | 3.1 ± 0.41 | 3.09 ± 0.52 |  |  |
| TPEEVIWEALNMMGLYDGMEHLIY [MAGEA10] | 2.49 ± 0.37 | 2.03 ± 0.055 |  |  |
| FLYVTGHIKEILITAGGENVPPIP [ACSBG2] | 2.78 ± 0.93 | 2.81 ± 1.1 |  |  |
| SDLLNDQDLLDVIRIKLDPCHPTV [EDARADD] | 2.67 ± 0.23 | 2.78 ± 0.21 |  |  |
| SISEEGFHYLVFDLVTGGELFEDI [CAMK2B] | 2.32 ± 0.42 | 2.24 ± 0.4 |  |  |
| EALYAQDPSTGCYMYYFQYLSKTY [KMT5A] | 3.26 ± 0.94 | 2.42 ± 1.1 |  |  |
| DDIKESLESEGKNSKKEEPQELLQ [ATE1] | 5.65 ± 0.2 | 5.61 ± 0.13 |  |  |
| FKRSVRRNLSYTCRANRNCPIDQH [NR2F2] | 2.71 ± 0.17 | 2.63 ± 0.33 |  |  |
| QQPSKHRTDEELQPPTTTVARSGT [PLK2] | 5.47 ± 0.15 | 5.27 ± 0.1 |  |  |
| GGFDGSRRHTSMERYDPNIDQWSM [KLHL12] | 3.76 ± 0.28 | 3.89 ± 0.45 |  |  |
| PPPLPNHKYNTTSTSYSPLASLPL [PLAGL1] | 3.29 ± 0.17 | 3.33 ± 0.091 |  |  |
| EEFISNTLFKKIQALQKEKETLAV [CCDC6] | 3.27 ± 0.33 | 3.39 ± 0.33 |  |  |
| VVLPGAVSLRYSGATAASETLSGH [ADAMTS4] | 2.95 ± 0.46 | 2.96 ± 0.41 |  |  |
| GGFLSESKDCKPPVYLLLELEDKD [MYBL2] | 3.99 ± 0.21 | 4.17 ± 0.32 |  |  |
| RDANGWTLLHFSAARGKERCVRVF [ASB7] | 2.29 ± 0.29 | 2.43 ± 0.43 |  |  |
| KYLKKREDSIPLRGLSQNLFSNSD [SASS6] | 3.15 ± 0.2 | 3.4 ± 0.29 |  |  |
| LSSIKRDTNSIAKAIKARGEVIHC [STX11] | 3.22 ± 0.19 | 3.32 ± 0.2 |  |  |
